B1: p4382 (peptide)
peptide: TSFRHGC
B2: p4384 (peptide)
peptide: TPFRHTC
B3: p4381 (peptide)
peptide: SEFKHGC
B4: p4383 (peptide)
peptide: TSVFRHC
B5: p4380 (peptide)
peptide: QDFRHYC
B6: p4802 (peptide)
peptide: CHEFRH
B7: p4803 (peptide)
peptide: HEFRHC
B8: p4733 (peptide)
peptide: TPLMFWHC
B9: p4754 (peptide)
peptide: TSTEMWHC
B10: p4713 (peptide)
peptide: QPNLFYHC
B11: p4709 (peptide)
peptide: EDWFFWHC
B12: p4724 (peptide)
peptide: QELKRYYC
B13: p4719 (peptide)
peptide: HEPLFSHC
B14: p4752 (peptide)
peptide: NSSELRHC
B15: p4739 (peptide)
peptide: AEFMHSVC
B16: p4708 (peptide)
peptide: SSSFFPRC
B17: p4743 (peptide)
peptide: SNSEFRRC
B18: p4705 (peptide)
peptide: YSMRHDAC
B19: p4716 (peptide)
peptide: ATFRHSPC
B20: p4736 (peptide)
peptide: TGLMFKHC
B21: p4751 (peptide)
peptide: AYFPHTSC
B22: p4734 (peptide)
peptide: LQFKHSTC
B23: p4718 (peptide)
peptide: TYFSHSLC
B24: p4717 (peptide)
peptide: APMYFPHC
B25: p4702 (peptide)
peptide: GEMRHQPC
B26: p4755 (peptide)
peptide: SQSYFKHC
B27: p4737 (peptide)
peptide: AEFSHWHC
B28: p4723 (peptide)
peptide: ATPLFRHC
B29: p4710 (peptide)
peptide: SAGSFRHC
B30: p4748 (peptide)
peptide: YEFRHAQC
B31: p4726 (peptide)
peptide: LHIPFRHC
B32: p4703 (peptide)
peptide: DTYFPRSC
B33: p4722 (peptide)
peptide: EFLRHTLC
B34: p4749 (peptide)
peptide: SNFRHSVC
B35: p4704 (peptide)
peptide: VELRHSRC
B36: p4721 (peptide)
peptide: SLMRHSSC
B37: p4744 (peptide)
peptide: SELRHSTC
B38: p4745 (peptide)
peptide: THMEFRRC
B39: p4706 (peptide)
peptide: AANYFPRC
B40: p4742 (peptide)
peptide: IGFRHDSC
B41: p4729 (peptide)
peptide: SQYFPRPC
B42: p4750 (peptide)
peptide: APIQFRHC
B43: p4747 (peptide)
peptide: QLFKHSPC
B44: p4714 (peptide)
peptide: ELFKHHLC
B45: p4712 (peptide)
peptide: SEFSHSSC
B46: p4701 (peptide)
peptide: NELRHSTC
B47: p4727 (peptide)
peptide: NELFKHFC
B48: p4731 (peptide)
peptide: MLPFRHGC
B49: p4735 (peptide)
peptide: ATFRHSTC
B50: p4711 (peptide)
peptide: QVMRHHAC
B51: p4732 (peptide)
peptide: SAMRHSLC

The first test concerns the target monoclonal antibody MV-001. Description: inhibition ELISA; competitor: coated original epitope p4371.
Details: not given
A general note: ELISA stands for enzyme-linked immunosorbent assay.
Turning to B1, the Inhibition Capacity (code (weaker than original epitope)) stood at 1.
Same read-out and setting: the figure for B2 is 1; for B3 it is 1.
B4 came in with an Inhibition Capacity (code (weaker than original epitope)) of 1.
As to B5, the Inhibition Capacity (code (weaker than original epitope)) was found to be 1.

Staying with this test, now noted: scale: code.
As to B6, the Inhibition Capacity was 2.
For B7, the Inhibition Capacity is 2.

The next test addresses monoclonal antibody MV-001. In words: ELISA, peptide-BSA coated, MV-001.
Details: not given
For B8, the Binding Capacity (code (weak binding, OD halfmax 1:<4000)) amounted to 1.
B9 returned a Binding Capacity (code (weak binding, OD halfmax 1:<4000)) of 1.
On to B10, for which the Binding Capacity (code (weak binding, OD halfmax 1:<4000)) was determined as 1.
Still for that read-out and setting: the figure for B11 is 1; for B12 it is 1; for B13 it is 1.

The test is the same for the next values; noted with them: scale: code.
The molecule B14 gave a Binding Capacity of 3.
On the same count and under the same terms, the same measure for B15: 2; for B16: 2; for B17: 3.
On the same count and under the same terms, the same measure for B18: 2.
As to B19, the Binding Capacity came out at 2.
In turn, B20 had a Binding Capacity of 2.
Turning to B21, the Binding Capacity stood at 2.
For B22, the Binding Capacity came out at 2.
The same measure, in the same setting: the figure for B23 is 2; for B24 it is 2; for B25 it is 3.
Consider B26, for which the Binding Capacity was 3.
The molecule B27 registered a Binding Capacity of 2.
Molecule B28 returned a Binding Capacity of 3.
For B29, the Binding Capacity was found to be 3.
In turn, B30 gave a Binding Capacity of 3.
The molecule B1 had a Binding Capacity of 2.
B31 yielded a Binding Capacity of 3.
In the case of B6, the Binding Capacity was 3.
The same measure, in the same setting: the figure for B32 is 2; for B33 it is 3.
In the case of B34, the Binding Capacity was determined as 3.
Same read-out and setting: the same measure for B35: 2; for B36: 2.
As for B37, the Binding Capacity was 3.
B38 returned a Binding Capacity of 3.
In the case of B39, the Binding Capacity came out at 2.
In turn, B2 displayed a Binding Capacity of 2.
Same read-out and setting: the figure for B40 is 2.
B41: the Binding Capacity was 2.
On to B3, for which the Binding Capacity amounted to 3.
The molecule B42 returned a Binding Capacity of 3.
Same read-out and setting: the figure for B43 is 3.
The same measure, in the same setting: the same measure for B44: 3; for B45: 3.
In turn, B46 returned a Binding Capacity of 3.
Turning to B47, the Binding Capacity was found to be 2.
Regarding B4, the Binding Capacity came to 3.
With B48, the Binding Capacity is 2.
Molecule B5 came in with a Binding Capacity of 2.
Still for that read-out and setting: the figure for B7 is 3.
On to B49, for which the Binding Capacity stood at 2.
In turn, B50 showed a Binding Capacity of 2.
With B51, the Binding Capacity is 2.

A further test concerns monoclonal antibody MV-001. Description: In vitro binding assay (ELISA), parental antibody MV-001. The conditions noted are these: peptide-BSA on ELISA plate; OD halfmax, dilution factor 1:X of parental AB MV-001. Also noted: species or system C57/Bl6 mice. The procedure: 1. In vitro binding assay (ELISA)
Peptides derived from Phage Display as well as variants thereof were coupled to BSA and bound to ELISA plates (1 μM; as indicated in the respective figures) and subsequently incubated with the monoclonal antibody that was used for the screening procedure to analyse binding capacity of identified peptides.
Regarding ATPLFRHC [p4723], the “Binding Capacity” value is reported as 3 (strong binding :>20000).
Consider SQSYFKHC [p4755], for which the “Binding Capacity” value is recorded as 3 (strong binding :>20000).
In the case of TSTEMWHC [p4754], the “Binding Capacity” value is listed as 1 (weak binding :<4000).
As for SEFSHSSC [p4712], the “Binding Capacity” value is listed as 3 (strong binding :>20000).
With QELKRYYC [p4724], the “Binding Capacity” value is on record as 1 (weak binding :<4000).
As to SAGSFRHC [p4710], the “Binding Capacity” value is reported as 3 (strong binding :>20000).
Consider QLFKHSPC [p4747], for which the “Binding Capacity” value was 3 (strong binding :>20000).
As for SNFRHSVC [p4749], the “Binding Capacity” value is 3 (strong binding :>20000).
As for EDWFFWHC [p4709], the “Binding Capacity” value is 1 (weak binding :<4000).
For the molecule TPLMFWHC [p4733], the “Binding Capacity” value is on record as 1 (weak binding :<4000).
Same read-out and setting: the same measure for NELRHSTC [p4701]: 3 (strong binding :>20000).
Consider QPNLFYHC [p4713], for which the “Binding Capacity” value is on record as 1 (weak binding :<4000).
In the case of SNSEFRRC [p4743], the “Binding Capacity” value is given as 3 (strong binding :>20000).
EFLRHTLC [p4722]: the “Binding Capacity” value is 3 (strong binding :>20000).
The same measure, in the same setting: the same measure for THMEFRRC [p4745]: 3 (strong binding :>20000); for GEMRHQPC [p4702]: 3 (strong binding :>20000).
Regarding LHIPFRHC [p4726], the “Binding Capacity” value is listed as 3 (strong binding :>20000).
On the same count and under the same terms, the figure for NSSELRHC [p4752] is 3 (strong binding :>20000); for SELRHSTC [p4744] it is 3 (strong binding :>20000); for APIQFRHC [p4750] it is 3 (strong binding :>20000).
Consider HEPLFSHC [p4719], for which the “Binding Capacity” value is 1 (weak binding :<4000).

The values above are taken from patent publication US8613931B2, “Compounds for treating beta-amyloidoses” (Affiris AG, priority 2008, dated 2013).
